According to patent US20260265405A1 (NONA BIOSCIENCES SUZHOU, published 2026):
Changes are numbered by the printed parent chain. Names and notes keep the numbering of the source.

B1: PR300159 (antibody, V domains shown)
VH: QVQLVESGGGVVQPGRSLRLSCAASGFTFSSDGMNWVRQAPGKGLEWVAVIWNDGSNKYYADSVKGRFTISRDNSKNTLYLQMNSLRAEDTAVYYCARDRGPLWPLDYWGQGTLVTVSS
VL: DIQMTQSPSTLSASVGDRVTITCRASQSISRWLAWYQQKPGKAPKLLIYKASSLESGVPSRFSGSGSGTEFTLTISNLQPDDFATFYCQQYNSYSRTFGQGTKVEIKR
notes: Parental antibody from Harbour H2L2 mice
B2: PR300186 (antibody, human IgG1, kappa, V domains shown)
VH: QVQLQESGPGLVKPSETLSLTCTVSGGSINNYYWSWVRQPPGKGLEWIGYIFYSGSTNSNPSLKSRVIISVDTSKNQFSLKLSSVTAADTAVYYCAREVGRIAVAGWFFDLWGRGTLVTVSS
VL: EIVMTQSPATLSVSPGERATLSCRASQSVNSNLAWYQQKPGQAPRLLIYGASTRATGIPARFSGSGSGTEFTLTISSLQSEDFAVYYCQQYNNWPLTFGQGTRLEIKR
notes: as for B1
B3: PR300186-9 (antibody, human IgG1, kappa, V domains shown)
VH: B2 VH
VL: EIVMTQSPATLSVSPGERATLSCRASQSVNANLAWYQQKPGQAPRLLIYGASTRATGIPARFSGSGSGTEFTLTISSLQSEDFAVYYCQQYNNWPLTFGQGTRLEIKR
B4: PR300186-10 (antibody, human IgG1, kappa, V domains shown)
VH: B2 VH with N30Q, N58Q
VL: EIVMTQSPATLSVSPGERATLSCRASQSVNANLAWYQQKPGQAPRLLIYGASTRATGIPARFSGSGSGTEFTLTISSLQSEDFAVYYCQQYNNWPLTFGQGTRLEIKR
notes: PTM removal variant of PR300186: heavy chain N30Q and N58Q, light chain S31A
B5: PR300186-3 (antibody, human IgG1, kappa, V domains shown)
VH: B2 VH with N30Q, N58Q
VL: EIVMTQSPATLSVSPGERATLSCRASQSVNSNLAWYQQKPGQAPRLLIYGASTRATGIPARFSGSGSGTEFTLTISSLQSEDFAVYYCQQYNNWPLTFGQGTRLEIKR
B6: PR300159-6 (antibody, V domains shown)
VH: B1 VH
VL: B1 VL with S93T
notes: PTM removal variant of PR300159: light chain S93T
B7: PR300159-5 (antibody, V domains shown)
VH: B1 VH
VL: B1 VL with N92Q
notes: PTM removal variant of PR300159: light chain N92Q
B8: PR300159-8 (antibody, V domains shown)
VH: B1 VH
VL: B1 VL with N92A
notes: PTM removal variant of PR300159: light chain N92A
B9: PR300159-3 (antibody, V domains shown)
VH: B1 VH with G33A, G55A
VL: B1 VL
notes: PTM removal variant of PR300159: heavy chain G33A and G55A
B10: PR300159-7 (antibody, V domains shown)
VH: B1 VH
VL: B1 VL with N92T
notes: PTM removal variant of PR300159: light chain N92T
B11: PR300159-9 (antibody, V domains shown)
VH: B1 VH with G33A, D54E
VL: B1 VL with S93A
notes: PTM removal variant of PR300159: heavy chain G33A and D54E, light chain S93A
B12: PR300159-4 (antibody, V domains shown)
VH: B1 VH
VL: B1 VL with S93A
notes: PTM removal variant of PR300159: light chain S93A
B13: PR300159-1 (antibody, V domains shown)
VH: B1 VH with G33A, D54E
VL: B1 VL with N92S
notes: PTM removal variant of PR300159: heavy chain G33A and D54E, light chain N92S

Each binder was assayed against T1, membrane-bound human MSLN (on CHOK1-hu MSLN cells and endogenously on COV644 cells) (human, UniProt Q13421 296-598) (assay: flow cytometry on COV644 cells (endogenous human MSLN), Alexa Fluor 488 anti-human IgG detection [panel A]).
T1 construct: whole, on cells; The assay field of each row says which cell line carried the protein; also called mesothelin; cell surface MSLN
T1 sequence (Q13421 other isoform, or with tags, fused parts or gaps limits assumed): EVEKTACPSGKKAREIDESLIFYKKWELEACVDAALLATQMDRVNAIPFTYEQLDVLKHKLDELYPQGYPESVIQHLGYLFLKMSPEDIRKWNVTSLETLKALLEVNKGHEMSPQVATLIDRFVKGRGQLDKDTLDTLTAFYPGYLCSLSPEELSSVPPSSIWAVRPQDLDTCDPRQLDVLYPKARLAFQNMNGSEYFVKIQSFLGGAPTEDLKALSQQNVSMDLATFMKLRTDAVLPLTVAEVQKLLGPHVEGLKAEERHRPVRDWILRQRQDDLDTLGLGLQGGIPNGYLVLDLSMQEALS
Procedure: (§1) Binding of recombinant anti-MSLN antibodies to human or cynomolgus MSLN-expressing cells was tested by flow cytometry.
(§2) In brief, anti-MSLN antibodies were serially diluted in staining buffer (PBS containing 2% FBS). 50 μL of diluted antibody solution was added to 50 μL of cell suspension containing 1-2×10⁵ cells and incubated at 4° C. for 1 hour. The cells were washed twice with staining buffer (PBS containing 2% FBS), and 100 μL of 1:1000 diluted florescent labeled anti-human IgG antibody (Alexa Fluor® 488 AffiniPure Goat Anti-Human IgG(H+L), Jackson ImmunoResearch, Catalog 109-545-088) was added into each well. After 1-hour incubation at 4° C., cells were washed twice with staining buffer and subjected to flow cytometry.

B1 was tested, and the “EC50 (read off the curve)” value was ~0.4 nM.

The binders below were run against T1, membrane-bound human MSLN (on CHOK1-hu …) (assay: flow cytometry on CHOK1-human MSLN cells, Alexa Fluor 488 anti-human IgG detection [panel A]).
Procedure: as §1, §2

In the case of B1, the “EC50 (read off the curve)” value is reported as ~1 nM.

What follows are binders tested against T1, membrane-bound human MSLN (on CHOK1-hu …) (assay: flow cytometry on CHOK1-human MSLN cells, Alexa Fluor 488 anti-human IgG detection [panel B]).
Procedure: as §1, §2

B2 was tested, and the “EC50 (read off the curve)” value was ~0.4 nM.

The binders below were run against T1, membrane-bound human MSLN (on CHOK1-hu …) (assay: cell-based or functional assay).

Going from B2 to B3, the “Internalization FLU” value rises from 6050 FLU to 8070 FLU.

Going from B4 to B5, the “Internalization FLU” value falls from 8220 FLU to 7040 FLU.

Compared with B1, B6 is lower in “Internalization FLU” value: 22200 FLU for the first, 17800 FLU for the second.

Going from B7 to B8, the “Internalization FLU” value rises from 20900 FLU to 21200 FLU.

Compared with B9, B10 is higher in “Internalization FLU” value: 9180 FLU for the first, 22400 FLU for the second.

Going from B11 to B12, the “Internalization FLU” value rises from 8300 FLU to 20900 FLU.

In the case of B13, the “Internalization FLU” value is reported as 13700 FLU.

These binders were tested against T2, recombinant human MSLN ECD His-tag protein (Acro Biosystems, Catalog #MSN-H5223) (human, UniProt Q13421 296-580, limits assumed) (assay: BLI (Octet Red384), antibody on AHC sensor, human MSLN-His in solution).
T2 construct: extracellular domain; Bought protein; also called human MSLN protein; recombinant human MSLN-His tag; not shown: His-tag
T2 sequence (Q13421 other isoform, or with tags, fused parts or gaps limits assumed): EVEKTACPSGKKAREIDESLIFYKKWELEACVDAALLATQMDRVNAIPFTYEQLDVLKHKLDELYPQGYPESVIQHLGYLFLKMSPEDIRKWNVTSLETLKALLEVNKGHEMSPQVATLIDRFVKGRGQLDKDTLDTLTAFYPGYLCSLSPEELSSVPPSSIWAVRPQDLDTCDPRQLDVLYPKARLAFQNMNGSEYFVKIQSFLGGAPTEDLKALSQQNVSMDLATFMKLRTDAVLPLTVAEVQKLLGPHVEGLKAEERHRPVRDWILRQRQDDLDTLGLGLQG
Procedure: In the example, binding kinetics of anti-MSLN antibodies to soluble MSLN were analyzed by Octet Red384 (Fortebio). In Bio-Layer Interferometry (BLI) analysis, recombinant human MSLN-His tag (Acro Biosystems, Catalog #MSN-H5223) was serially diluted with 1× kinetic buffer (Fortebio). Anti-MSLN antibodies were diluted to 5 μg/mL. Then the diluted antibodies, antigen and regeneration buffer (10 mM glycine pH 1.75) were added to 96-well plates (Greiner). Rate constants for association and dissociation were measured using AHC sensor (Fortebio). The sensor surface was regenerated after each binding experiment with regeneration buffer. The traces were processed using Octet Data Analysis Software (version 11.0, Pall ForteBio, CA, USA).

Going from B2 to B4, the Kd rises from 18.6 nM to 128 nM (6.9-fold). The first binds more tightly here.

Compared with B1, B6 is lower in Kd: 0.00965 nM for the first, < 0.001 nM for the second. The second binds more tightly here.

B7 and B8 cannot be ordered by Kd: < 0.001 nM for the first, < 0.001 nM for the second.

B9 and B10 cannot be ordered by Kd: < 0.001 nM for the first, < 0.001 nM for the second.

B11 and B12 cannot be ordered by Kd: < 0.001 nM for the first, < 0.001 nM for the second.

With B13 the Kd was < 0.001 nM.

First: B2
Second: B4
The kon of the first is 1.6-fold higher: 705000 M⁻¹ s⁻¹ for the first, 431000 M⁻¹ s⁻¹ for the second.

Compared with B1, B6 is 1.6-fold lower in kon: 1.28e+06 M⁻¹ s⁻¹ for the first, 819000 M⁻¹ s⁻¹ for the second.

B7 and B8 are within 1.5-fold of each other in kon: 1.05e+06 M⁻¹ s⁻¹ for the first, 956000 M⁻¹ s⁻¹ for the second.

B9 and B10 are within 1.5-fold of each other in kon: 828000 M⁻¹ s⁻¹ for the first, 1.06e+06 M⁻¹ s⁻¹ for the second.

Compared with B11, B12 is 1.7-fold higher in kon: 566000 M⁻¹ s⁻¹ for the first, 978000 M⁻¹ s⁻¹ for the second.

B13 gave a kon of 947000 M⁻¹ s⁻¹.

What follows are binders tested against T1, membrane-bound human MSLN (on CHOK1-hu …) (assay: flow cytometry on COV644 cells).
Procedure: as §2, with “Binding of recombinant anti-MSLN antibodies to COV644 cell line (ECACC, catalog: 07071908) was tested by flow cytometry. In” for “In”

First: B1
Second: B6
The EC50 of the first is 2-fold lower: 1.99 nM for the first, 4.07 nM for the second.

B7 and B8 are within 1.5-fold of each other in EC50: 2.75 nM for the first, 2.33 nM for the second.

Going from B9 to B11, the EC50 rises from 2.14 nM to 8.25 nM (3.9-fold). The first is the more potent here.

B13 was tested, and the EC50 was 1.64 nM.

Compared with B1, B6 is higher in “TOP (MFI)” value: 2.07e+06 MFI for the first, 2.19e+06 MFI for the second.

First: B7
Second: B8
The “TOP (MFI)” value of the first is lower: 2.13e+06 MFI for the first, 2.15e+06 MFI for the second.

First: B9
Second: B11
The “TOP (MFI)” value of the first is higher: 2.06e+06 MFI for the first, 1.56e+06 MFI for the second.

In the case of B13, the “TOP (MFI)” value is reported as 2.34e+06 MFI.
